From patent US20200262877A1, “ION CHANNEL-BINDING PEPTIDES AND METHODS OF USE THEREOF” (priority 2017, published 2020)

What was measured:
[1] = target: T1, NR2B (Homo sapiens, UniProt Q13224); assay: Ion channel panel (IonWorks Barracuda): NR2B; type: cell-based; details: 100% = no change, <100% = inhibition
T1 construct: host or cells: HEK293 or CHO
Method in brief: (§1)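 Peptides were tested in duplicate at final 20 μM and 200 nM, with concentration set by amino acid analysis, in HEPES-buffered saline. They were applied for at least 5 min to HEK293 or CHO cells transfected with each channel. Currents were expressed as % inhibition, 1-(Ipeptide/Icontrol)×100, or % activation, Ipeptide/Icontrol×100, against a channel-matched reference compound.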

[2] = target: T2, Cav2.2 (Homo sapiens, UniProt Q00975); assay: cell-based; details: 100% = no change, <100% = inhibition
T2 construct: host or cells: HEK293 or CHO
Method in brief: as §1

[3] = target: T3, Kv2.1 (Homo sapiens, UniProt Q14721); assay: cell-based; details: 100% = no change, <100% = inhibition
T3 construct: host or cells: HEK293 or CHO
Method in brief: as §1

[4] = target: T4, Cav2.1 (Homo sapiens, UniProt O00555); assay: cell-based; details: 100% = no change, <100% = inhibition
T4 construct: host or cells: HEK293 or CHO
Method in brief: as §1

[5] = target: T5, α4β2 (Homo sapiens, UniProt P17787+P43681); assay: Ion channel panel (IonWorks Barracuda): α4β2; type: cell-based; details: 100% = no change, <100% = inhibition
T5 construct: host or cells: HEK293 or CHO
Method in brief: as §1

[6] = system: GABA; assay: Ion channel panel (IonWorks Barracuda): GABA; type: cell-based; details: 100% = no change, <100% = inhibition
Method in brief: as §1

[7] = target: T6, NR2A (Homo sapiens, UniProt Q12879); assay: Ion channel panel (IonWorks Barracuda): NR2A; type: cell-based; details: 100% = no change, <100% = inhibition
T6 construct: host or cells: HEK293 or CHO
Method in brief: as §1

[8] = target: T7, Nav1.7 (Homo sapiens, UniProt Q15858); assay: cell-based; type: cell-based; details: 100% = no change; for Activity of Nav1.7 with peptide, expressed as a percentage of the reference compound: peptide at 0.2 μM; for Activity of Nav1.7 with peptide (percentage of the reference compound): peptide at 20 μM
T7 construct: host or cells: HEK293 or CHO
T7 sequence (Q15858 whole entry): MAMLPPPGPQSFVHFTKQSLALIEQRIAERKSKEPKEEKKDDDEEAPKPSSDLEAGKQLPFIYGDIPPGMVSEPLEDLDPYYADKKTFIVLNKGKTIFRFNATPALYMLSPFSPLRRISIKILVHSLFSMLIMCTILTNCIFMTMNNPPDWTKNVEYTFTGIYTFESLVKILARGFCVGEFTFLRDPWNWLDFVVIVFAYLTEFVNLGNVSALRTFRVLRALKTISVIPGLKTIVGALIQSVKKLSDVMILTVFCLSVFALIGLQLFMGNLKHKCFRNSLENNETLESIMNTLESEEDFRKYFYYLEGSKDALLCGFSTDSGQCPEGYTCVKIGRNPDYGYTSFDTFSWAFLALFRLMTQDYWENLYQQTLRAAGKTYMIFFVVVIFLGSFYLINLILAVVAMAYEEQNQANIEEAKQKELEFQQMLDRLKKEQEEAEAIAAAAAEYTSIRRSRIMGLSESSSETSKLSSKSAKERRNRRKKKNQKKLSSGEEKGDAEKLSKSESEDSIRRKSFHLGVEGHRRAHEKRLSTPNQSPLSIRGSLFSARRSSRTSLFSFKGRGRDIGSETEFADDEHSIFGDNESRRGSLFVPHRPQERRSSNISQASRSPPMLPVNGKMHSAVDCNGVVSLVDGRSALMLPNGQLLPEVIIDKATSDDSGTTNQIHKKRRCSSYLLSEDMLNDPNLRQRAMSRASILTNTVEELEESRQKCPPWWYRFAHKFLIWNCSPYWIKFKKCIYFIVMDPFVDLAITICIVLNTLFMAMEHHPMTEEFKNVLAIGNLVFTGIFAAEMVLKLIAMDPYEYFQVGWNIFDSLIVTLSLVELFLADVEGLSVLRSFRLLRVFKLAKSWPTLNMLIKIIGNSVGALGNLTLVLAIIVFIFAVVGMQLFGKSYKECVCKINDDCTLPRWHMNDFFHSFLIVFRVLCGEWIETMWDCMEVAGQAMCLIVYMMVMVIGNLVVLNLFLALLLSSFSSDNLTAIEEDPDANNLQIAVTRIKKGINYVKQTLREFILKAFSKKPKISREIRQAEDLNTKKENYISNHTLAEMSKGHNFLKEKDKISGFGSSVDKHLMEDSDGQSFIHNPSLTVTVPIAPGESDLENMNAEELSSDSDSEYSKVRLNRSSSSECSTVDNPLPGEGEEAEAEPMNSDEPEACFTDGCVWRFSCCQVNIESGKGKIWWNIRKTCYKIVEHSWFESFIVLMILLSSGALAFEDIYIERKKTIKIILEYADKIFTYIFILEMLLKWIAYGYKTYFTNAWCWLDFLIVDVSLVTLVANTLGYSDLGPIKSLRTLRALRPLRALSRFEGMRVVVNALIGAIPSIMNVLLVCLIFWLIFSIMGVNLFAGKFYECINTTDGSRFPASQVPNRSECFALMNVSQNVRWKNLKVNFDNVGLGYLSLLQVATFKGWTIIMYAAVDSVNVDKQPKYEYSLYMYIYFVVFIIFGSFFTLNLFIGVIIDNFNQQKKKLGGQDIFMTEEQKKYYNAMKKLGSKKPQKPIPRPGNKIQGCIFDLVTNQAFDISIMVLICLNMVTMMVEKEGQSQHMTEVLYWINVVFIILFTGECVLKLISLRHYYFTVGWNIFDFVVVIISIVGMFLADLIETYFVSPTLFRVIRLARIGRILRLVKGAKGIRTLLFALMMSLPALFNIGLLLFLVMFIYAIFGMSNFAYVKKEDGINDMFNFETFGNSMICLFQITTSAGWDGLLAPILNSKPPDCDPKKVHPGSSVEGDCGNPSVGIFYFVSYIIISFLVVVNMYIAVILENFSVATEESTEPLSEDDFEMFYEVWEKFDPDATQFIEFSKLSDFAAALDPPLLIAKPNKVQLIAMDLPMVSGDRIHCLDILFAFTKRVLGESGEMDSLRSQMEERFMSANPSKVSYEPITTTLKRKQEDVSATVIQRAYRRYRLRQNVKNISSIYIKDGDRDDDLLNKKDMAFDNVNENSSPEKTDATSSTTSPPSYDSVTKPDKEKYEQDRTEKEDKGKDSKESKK

[9] = target: T8, α3β4 (Homo sapiens, UniProt P30926+P32297); assay: Ion channel panel (IonWorks Barracuda): α3β4; type: cell-based; details: 100% = no change, <100% = inhibition
T8 construct: host or cells: HEK293 or CHO
Method in brief: as §1

[10] = target: T9, TRPV1 (Homo sapiens, UniProt Q8NER1); assay: Ion channel panel (IonWorks Barracuda): TRPV1; type: cell-based; details: 100% = no change, <100% = inhibition
T9 construct: host or cells: HEK293 or CHO
Method in brief: as §1

[11] = target: T10, Kv1.2 (Homo sapiens, UniProt P16389); assay: cell-based; type: cell-based; details: 100% = no change, <100% = inhibition
T10 construct: host or cells: HEK293 or CHO
Method in brief: as §1

[12] = target: T11, Kv1.3 (Homo sapiens, UniProt P22001); assay: cell-based; type: cell-based; details: 100% = no change, <100% = inhibition
T11 construct: host or cells: HEK293 or CHO
Method in brief: as §1

[13] = target: T12, Kv1.1 (Homo sapiens, UniProt Q09470); assay: cell-based; type: cell-based; details: 100% = no change, <100% = inhibition
T12 construct: host or cells: HEK293 or CHO
Method in brief: as §1

[14] = target: T13, Kir2.1 (Homo sapiens, UniProt P63252); assay: Ion channel panel (IonWorks Barracuda): Kir2.1; type: cell-based; details: 100% = no change, <100% = inhibition
T13 construct: host or cells: HEK293 or CHO
Method in brief: as §1

[15] = target: T14, 5HT3a (Homo sapiens, UniProt P46098); assay: Ion channel panel (IonWorks Barracuda): 5HT3a; type: cell-based
T14 construct: host or cells: HEK293 or CHO
T14 sequence (P46098 whole entry, looked up): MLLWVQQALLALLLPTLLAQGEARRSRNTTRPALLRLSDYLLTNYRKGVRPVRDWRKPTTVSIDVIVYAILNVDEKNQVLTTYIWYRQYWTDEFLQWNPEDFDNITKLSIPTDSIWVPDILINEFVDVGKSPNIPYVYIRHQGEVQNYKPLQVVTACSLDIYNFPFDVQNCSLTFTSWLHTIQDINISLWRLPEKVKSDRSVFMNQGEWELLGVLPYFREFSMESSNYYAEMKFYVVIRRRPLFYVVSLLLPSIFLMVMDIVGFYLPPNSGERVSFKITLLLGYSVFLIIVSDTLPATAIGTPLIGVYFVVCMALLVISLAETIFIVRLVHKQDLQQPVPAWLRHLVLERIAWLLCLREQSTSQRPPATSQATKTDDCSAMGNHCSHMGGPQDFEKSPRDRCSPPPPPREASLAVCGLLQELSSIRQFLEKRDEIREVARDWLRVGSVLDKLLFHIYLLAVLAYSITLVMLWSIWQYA
Method in brief: as §1

[16] = target: T15, TRPA1 (Homo sapiens, UniProt O75762); assay: Ion channel panel (IonWorks Barracuda): TRPA1; type: cell-based; details: 100% = no change, <100% = inhibition
T15 construct: host or cells: HEK293 or CHO
T15 sequence (O75762 whole entry): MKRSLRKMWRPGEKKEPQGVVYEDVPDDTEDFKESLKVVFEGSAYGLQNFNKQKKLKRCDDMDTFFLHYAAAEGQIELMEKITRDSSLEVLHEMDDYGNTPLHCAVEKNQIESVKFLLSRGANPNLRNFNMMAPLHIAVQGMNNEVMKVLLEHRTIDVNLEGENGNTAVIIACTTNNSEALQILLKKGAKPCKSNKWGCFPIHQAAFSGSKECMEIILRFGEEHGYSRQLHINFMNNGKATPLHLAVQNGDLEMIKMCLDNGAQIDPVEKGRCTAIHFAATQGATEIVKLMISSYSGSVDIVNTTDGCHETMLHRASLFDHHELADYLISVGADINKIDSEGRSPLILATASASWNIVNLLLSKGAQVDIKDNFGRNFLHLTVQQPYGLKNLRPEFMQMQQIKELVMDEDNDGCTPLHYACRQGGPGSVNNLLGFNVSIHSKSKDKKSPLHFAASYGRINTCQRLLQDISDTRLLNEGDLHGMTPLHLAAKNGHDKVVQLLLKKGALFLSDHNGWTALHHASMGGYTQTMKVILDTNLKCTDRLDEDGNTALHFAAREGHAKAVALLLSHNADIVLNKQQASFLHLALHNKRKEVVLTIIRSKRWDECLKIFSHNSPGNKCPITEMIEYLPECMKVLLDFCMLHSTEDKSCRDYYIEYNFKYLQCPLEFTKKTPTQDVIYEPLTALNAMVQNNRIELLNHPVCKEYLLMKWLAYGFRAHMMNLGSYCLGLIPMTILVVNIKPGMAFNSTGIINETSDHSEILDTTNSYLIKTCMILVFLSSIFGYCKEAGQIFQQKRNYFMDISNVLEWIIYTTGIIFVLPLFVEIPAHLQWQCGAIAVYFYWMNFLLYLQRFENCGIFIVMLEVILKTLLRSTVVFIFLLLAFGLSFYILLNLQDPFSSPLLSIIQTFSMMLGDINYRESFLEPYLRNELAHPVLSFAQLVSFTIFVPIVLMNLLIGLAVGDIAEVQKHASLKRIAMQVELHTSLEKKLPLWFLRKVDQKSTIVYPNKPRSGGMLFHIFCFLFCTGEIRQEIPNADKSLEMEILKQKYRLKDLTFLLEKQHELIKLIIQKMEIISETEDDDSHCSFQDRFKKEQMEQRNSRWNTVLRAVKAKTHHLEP
Method in brief: as §1

[17] = target: hERG (Homo sapiens, UniProt Q12809); assay: in vitro; details: 100% = no change, <100% = inhibition
Method in brief: as §1

[18] = target: Nav1.5 (Homo sapiens, UniProt Q14524); assay: in vitro; details: 100% = no change; for Activity of Nav1.5 with peptide, expressed as a percentage of the reference compound: peptide at 0.2 μM; for Activity of Nav1.5 with peptide (percentage of the reference compound): peptide at 20 μM
Sequence of Nav1.5 (Q14524 whole entry): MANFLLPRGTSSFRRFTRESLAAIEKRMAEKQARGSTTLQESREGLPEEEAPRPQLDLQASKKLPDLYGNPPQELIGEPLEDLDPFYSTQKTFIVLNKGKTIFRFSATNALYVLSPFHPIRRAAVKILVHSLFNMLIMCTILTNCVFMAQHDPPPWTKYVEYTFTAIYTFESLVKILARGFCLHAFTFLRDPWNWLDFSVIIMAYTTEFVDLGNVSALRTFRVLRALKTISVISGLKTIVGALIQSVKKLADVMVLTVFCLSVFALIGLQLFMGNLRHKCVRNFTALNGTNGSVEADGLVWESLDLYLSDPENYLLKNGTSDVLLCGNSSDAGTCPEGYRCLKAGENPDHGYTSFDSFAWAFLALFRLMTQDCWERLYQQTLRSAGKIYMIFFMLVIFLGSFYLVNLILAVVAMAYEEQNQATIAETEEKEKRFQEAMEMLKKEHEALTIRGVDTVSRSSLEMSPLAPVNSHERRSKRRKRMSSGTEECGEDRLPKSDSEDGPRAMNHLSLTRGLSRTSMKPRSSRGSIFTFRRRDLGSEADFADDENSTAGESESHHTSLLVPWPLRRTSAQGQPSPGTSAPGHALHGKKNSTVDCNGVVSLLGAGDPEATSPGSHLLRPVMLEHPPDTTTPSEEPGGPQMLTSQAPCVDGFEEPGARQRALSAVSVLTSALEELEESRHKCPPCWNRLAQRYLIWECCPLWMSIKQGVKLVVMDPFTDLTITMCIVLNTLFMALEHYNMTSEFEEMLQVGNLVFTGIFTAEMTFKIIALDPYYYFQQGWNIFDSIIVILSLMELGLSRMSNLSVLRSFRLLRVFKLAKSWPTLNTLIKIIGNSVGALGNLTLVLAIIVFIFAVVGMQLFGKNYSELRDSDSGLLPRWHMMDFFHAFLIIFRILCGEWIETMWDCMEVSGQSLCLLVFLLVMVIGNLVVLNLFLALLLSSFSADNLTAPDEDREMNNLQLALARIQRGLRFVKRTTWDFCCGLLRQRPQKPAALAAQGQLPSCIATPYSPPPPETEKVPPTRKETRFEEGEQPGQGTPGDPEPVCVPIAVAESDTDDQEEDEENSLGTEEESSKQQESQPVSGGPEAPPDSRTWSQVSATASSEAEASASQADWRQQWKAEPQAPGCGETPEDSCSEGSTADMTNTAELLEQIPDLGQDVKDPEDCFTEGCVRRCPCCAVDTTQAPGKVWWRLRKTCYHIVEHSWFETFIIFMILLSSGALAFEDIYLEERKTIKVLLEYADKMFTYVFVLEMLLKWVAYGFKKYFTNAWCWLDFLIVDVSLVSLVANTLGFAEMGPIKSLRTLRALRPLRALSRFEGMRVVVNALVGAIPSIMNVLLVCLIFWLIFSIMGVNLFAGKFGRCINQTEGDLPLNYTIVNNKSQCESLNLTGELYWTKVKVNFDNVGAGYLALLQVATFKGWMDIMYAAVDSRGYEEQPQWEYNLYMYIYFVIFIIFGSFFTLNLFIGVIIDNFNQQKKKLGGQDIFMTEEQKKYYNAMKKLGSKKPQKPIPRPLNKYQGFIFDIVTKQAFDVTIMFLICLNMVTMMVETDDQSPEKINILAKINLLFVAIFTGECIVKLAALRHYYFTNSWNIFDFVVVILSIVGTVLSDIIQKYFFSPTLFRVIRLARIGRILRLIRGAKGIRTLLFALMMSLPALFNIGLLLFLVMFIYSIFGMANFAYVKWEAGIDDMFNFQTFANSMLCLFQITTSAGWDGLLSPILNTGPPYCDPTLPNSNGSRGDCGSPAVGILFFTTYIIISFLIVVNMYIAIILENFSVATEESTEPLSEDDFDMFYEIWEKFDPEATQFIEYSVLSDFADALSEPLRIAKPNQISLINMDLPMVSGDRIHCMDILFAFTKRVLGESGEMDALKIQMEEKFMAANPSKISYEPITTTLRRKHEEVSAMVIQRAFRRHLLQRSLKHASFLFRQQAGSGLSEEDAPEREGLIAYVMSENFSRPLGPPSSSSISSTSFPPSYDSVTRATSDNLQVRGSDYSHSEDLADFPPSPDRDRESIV
Method in brief: as §1

[19] = first of two Nav1.7 columns (probably TP1)
[20] = second of two Nav1.7 columns (probably TP2)
[21] = first of two Nav1.5 columns (probably TP1)
[22] = second of two Nav1.5 columns (probably TP2)

With “22 (GSSDYCSNDFCFFSCRRDRCARGDCENGKCVCKNCHLN) [compound 22]” the “Activity of NR2B with peptide, expressed as a percentage of the reference compound” value ([1]; peptide at 0.2 μM) was 94%, the “Activity of NR2B with peptide (percentage of the reference compound)” value ([1]; peptide at 20 μM) was 97% and the “Activity of Cav2.2 with peptide, expressed as a percentage of the reference compound” value ([2]; peptide at 0.2 μM) was 130%. For the same substance, the “Activity of Cav2.2 with peptide (percentage of the reference compound)” value ([2]; peptide at 20 μM) was 86%, the “Activity of Kv2.1 with peptide, expressed as a percentage of the reference compound” value ([3]; peptide at 0.2 μM) was 110% and the “Activity of Kv2.1 with peptide (percentage of the reference compound)” value ([3]; peptide at 20 μM) was 93%. The “Activity of Cav2.1 with peptide, expressed as a percentage of the reference compound” value ([4]; peptide at 0.2 μM) was 98%, the “Activity of Cav2.1 with peptide (percentage of the reference compound)” value ([4]; peptide at 20 μM) was 99% and the “Activity of a4b2 with peptide, expressed as a percentage of the reference compound” value ([5]; peptide at 0.2 μM) was 92%. For the same substance, the “Activity of a4b2 with peptide (percentage of the reference compound)” value ([5]; peptide at 20 μM) was 83%, the “Activity of GABA with peptide, expressed as a percentage of the reference compound” value ([6]; peptide at 0.2 μM) was 99% and the “Activity of GABA with peptide (percentage of the reference compound)” value ([6]; peptide at 20 μM) was 124%. The “Activity of NR2A with peptide, expressed as a percentage of the reference compound” value ([7]; peptide at 0.2 μM) was 107%, the “Activity of NR2A with peptide (percentage of the reference compound)” value ([7]; peptide at 20 μM) was 129% and the “Activity of Nav1.7 with peptide, expressed as a percentage of the reference compound” value [8, 19] was 79%. For the same substance, the “Activity of Nav1.7 with peptide, expressed as a percentage of the reference compound” value [8, 20] was 81%, the “Activity of Nav1.7 with peptide (percentage of the reference compound)” value [8, 19] was 94% and the “Activity of Nav1.7 with peptide (percentage of the reference compound)” value [8, 20] was 87%. The “Activity of a3b4 with peptide, expressed as a percentage of the reference compound” value ([9]; peptide at 0.2 μM) was 98%, the “Activity of a3b4 with peptide (percentage of the reference compound)” value ([9]; peptide at 20 μM) was 92% and the “Activity of TRPV1 with peptide, expressed as a percentage of the reference compound” value ([10]; peptide at 0.2 μM) was 102%. The “Activity of TRPV1 with peptide (percentage of the reference compound)” value ([10]; peptide at 20 μM) was 67%, the “Activity of Kv1.2 with peptide, expressed as a percentage of the reference compound” value ([11]; peptide at 0.2 μM) was 82% and the “Activity of Kv1.2 with peptide (percentage of the reference compound)” value ([11]; peptide at 20 μM) was 34%. For the same substance, the “Activity of Kv1.3 with peptide, expressed as a percentage of the reference compound” value ([12]; peptide at 0.2 μM) was 100%, the “Activity of Kv1.3 with peptide (percentage of the reference compound)” value ([12]; peptide at 20 μM) was 51% and the “Activity of Kv1.1 with peptide, expressed as a percentage of the reference compound” value ([13]; peptide at 0.2 μM) was 83%. For the same substance, the “Activity of Kv1.1 with peptide (percentage of the reference compound)” value ([13]; peptide at 20 μM) was 97%, the “Activity of Kir2.1 with peptide, expressed as a percentage of the reference compound” value ([14]; peptide at 0.2 μM) was 94% and the “Activity of Kir2.1 with peptide (percentage of the reference compound)” value ([14]; peptide at 20 μM) was 97%. The “Activity of 5HT3a with peptide (percentage of the reference compound)” value [15] was 95%, the “Activity of 5HT3a with peptide, expressed as a percentage of the reference compound” value [15] was 77% and the “Activity of TRPA1 with peptide, expressed as a percentage of the reference compound” value ([16]; peptide at 0.2 μM) was 90%. The “Activity of TRPA1 with peptide (percentage of the reference compound)” value ([16]; peptide at 20 μM) was 128%, the “Activity of hERG with peptide, expressed as a percentage of the reference compound” value ([17]; peptide at 0.2 μM) was 84% and the “Activity of hERG with peptide (percentage of the reference compound)” value ([17]; peptide at 20 μM) was 79%. The “Activity of Nav1.5 with peptide, expressed as a percentage of the reference compound” value [18, 21] was 90%, the “Activity of Nav1.5 with peptide, expressed as a percentage of the reference compound” value [18, 22] was 90% and the “Activity of Nav1.5 with peptide (percentage of the reference compound)” value [18, 21] was 112%. For the same substance, the “Activity of Nav1.5 with peptide (percentage of the reference compound)” value [18, 22] was 116%.
